Experimental data from patent US20260241049A1, “Radiopharmaceutical Compositions Targeting Glypican-3 and Uses Thereof” (RayzeBio, Inc., priority 2023, published 2026).
Starred links: 1 amine or outer side, 2 acyl side, 3 side chain; linkers in the order of their positions; H or OH if unused. Positions of bridges follow the written chain, without caps; N, C: chain ends. Non-standard residues stand in square brackets, D forms with d. Residues, ends and D or L forms follow the SMILES beside them. Groups on a side chain read outwards from the residue. Primed or numbered codes have the meaning given here. *: point of attachment. MeKCOpipzaa″ = (2S)-6-{[4-(carboxymethyl)piperazine-1-carbonyl]amino}-2-(methylamino)hexanoic acid, CN([C@@H](CCCCNC(=O)N1CCN(CC(=O)[*:3])CC1)C(=O)[*:2])[*:1]; MeHseMe″ = (2S)-4-methoxy-2-(methylamino)butanoic acid (N-methyl-O-methyl-L-homoserine), COCC[C@@H](C(=O)[*:2])N(C)[*:1]; TMe(3) = O-methyl-L-threonine ((2S,3R)-2-amino-3-methoxybutanoic acid), CO[C@H](C)[C@H](N[*:1])C(=O)[*:2]; F4aao = 4-(carboxymethoxy)-L-phenylalanine, O=C([C@H](Cc1ccc(OCC(=O)[*:3])cc1)N[*:1])[*:2]; MeHseMe = N-methyl-O-methyl-L-homoserine, COCC[C@@H](C(=O)[*:2])N(C)[*:1]; Hgn = 2,6-diamino-6-oxohexanoic acid, NC(=O)CCC[C@H](N[*:1])C(=O)[*:2]; Phe(4-(1-Me-pyrazol-4-yl)) = Cn1cc(-c2ccc(C[C@H](N)C(=O)O)cc2)cn1; SulfoCy5″ = sulfo-Cyanine5 hexanoyl dye as amide on the lysine NZ; TMe = O-methyl-L-threonine, CO[C@H](C)[C@H](N[*:1])C(=O)[*:2]; NMeAla(isoquinolin-7-yl) = CN[C@@H](Cc1ccc2ccncc2c1)C(=O)O; SulfoCy5(3) = sulfo-Cyanine5 hexanoyl dye on the lysine NZ; PEG12 = NCCOCCOCCOCCOCCOCCOCCOCCOCCOCCOCCOCCOCCC(=O)O; Phe(4-CH2COOH) = N[C@@H](Cc1ccc(CC(=O)O)cc1)C(=O)O; 3Pal(6-Ph) = N[C@@H](Cc1ccc(-c2ccccc2)nc1)C(=O)O; Biotin = O=C1N[C@H]2[C@H](CS[C@H]2CCCCC(=O)*)N1; Phe(4-COOH) = N[C@@H](Cc1ccc(C(=O)O)cc1)C(=O)O; NMe2Nal = CN[C@@H](Cc1ccc2ccccc2c1)C(=O)O; AEF = NCCOc1ccc(C[C@H](N)C(=O)O)cc1; NMeY = CN[C@@H](Cc1ccc(O)cc1)C(=O)O; NMeI = CC[C@H](C)[C@H](NC)C(=O)O; NMeQ = CN[C@@H](CCC(N)=O)C(=O)O; NMeK = CN[C@@H](CCCCN)C(=O)O; NMeC = CN[C@@H](CS)C(=O)O; Carboxymethyl = O=C(O)C*; NMeA = CN[C@@H](C)C(=O)O; MeK = methyl-L-lysine

B1: PLB-28 (peptide)
peptide: {CH2CO}-[NMeQ][NMeQ]D[NMeQ][Phe(4-COOH)]II[AEF]([PEG12-Biotin])[NMe2Nal]G[Phe(4-(1-Me-pyrazol-4-yl))][NMeC]-NH2
modifications: thioether N-12
SMILES: CC[C@H](C)[C@@H]1NC(=O)[C@H](Cc2ccc(C(=O)O)cc2)NC(=O)[C@H](CCC(N)=O)N(C)C(=O)[C@H](CC(=O)O)NC(=O)[C@H](CCC(N)=O)N(C)C(=O)[C@H](CCC(N)=O)N(C)C(=O)CSC[C@@H](C(N)=O)N(C)C(=O)[C@H](Cc2ccc(-c3cnn(C)c3)cc2)NC(=O)CNC(=O)[C@H](Cc2ccc3ccccc3c2)N(C)C(=O)[C@H](Cc2ccc(OCCNC(=O)CCOCCOCCOCCOCCOCCOCCOCCOCCOCCOCCOCCOCCNC(=O)CCCC[C@@H]3SC[C@@H]4NC(=O)N[C@@H]43)cc2)NC(=O)[C@H]([C@@H](C)CC)NC1=O
B2: Macrocyclic peptide of Example 2-56 (SEQ ID No. 27) (peptide)
peptide: {CH2CO}-[NMeQ][NMeQ]D[NMeQ][AEF]II[Phe(4-CH2COOH)][NMe2Nal]G[Phe(4-(1-Me-pyrazol-4-yl))][NMeC]-NH2
modifications: thioether N-12
SMILES: CC[C@H](C)[C@@H]1NC(=O)[C@H](Cc2ccc(OCCN)cc2)NC(=O)[C@H](CCC(N)=O)N(C)C(=O)[C@H](CC(=O)O)NC(=O)[C@H](CCC(N)=O)N(C)C(=O)[C@H](CCC(N)=O)N(C)C(=O)CSC[C@@H](C(N)=O)N(C)C(=O)[C@H](Cc2ccc(-c3cnn(C)c3)cc2)NC(=O)CNC(=O)[C@H](Cc2ccc3ccccc3c2)N(C)C(=O)[C@H](Cc2ccc(CC(=O)O)cc2)NC(=O)[C@H]([C@@H](C)CC)NC1=O
B3: Macrocyclic peptide of Example 2-53 (SEQ ID No. 28) (peptide)
peptide: {CH2CO}-[NMeQ][NMeQ]D[NMeQ][Phe(4-COOH)]II[AEF][NMe2Nal]G[Phe(4-(1-Me-pyrazol-4-yl))][NMeC]-NH2
modifications: thioether N-12
SMILES: CC[C@H](C)[C@@H]1NC(=O)[C@H](Cc2ccc(C(=O)O)cc2)NC(=O)[C@H](CCC(N)=O)N(C)C(=O)[C@H](CC(=O)O)NC(=O)[C@H](CCC(N)=O)N(C)C(=O)[C@H](CCC(N)=O)N(C)C(=O)CSC[C@@H](C(N)=O)N(C)C(=O)[C@H](Cc2ccc(-c3cnn(C)c3)cc2)NC(=O)CNC(=O)[C@H](Cc2ccc3ccccc3c2)N(C)C(=O)[C@H](Cc2ccc(OCCN)cc2)NC(=O)[C@H]([C@@H](C)CC)NC1=O
B4: PLB-30 (peptide)
peptide: {CH2CO}-[NMeK]([PEG12-Biotin])[NMeI]D[NMeQ][Phe(4-COOH)][TMe]I[F4aao][NMeAla(isoquinolin-7-yl)]G[3Pal(6-Ph)][NMeC]-NH2
modifications: thioether N-12
SMILES: CC[C@H](C)[C@@H]1NC(=O)[C@H]([C@@H](C)OC)NC(=O)[C@H](Cc2ccc(C(=O)O)cc2)NC(=O)[C@H](CCC(N)=O)N(C)C(=O)[C@H](CC(=O)O)NC(=O)[C@H]([C@@H](C)CC)N(C)C(=O)[C@H](CCCCNC(=O)CCOCCOCCOCCOCCOCCOCCOCCOCCOCCOCCOCCOCCNC(=O)CCCC[C@@H]2SC[C@@H]3NC(=O)N[C@@H]32)N(C)C(=O)CSC[C@@H](C(N)=O)N(C)C(=O)[C@H](Cc2ccc(-c3ccccc3)nc2)NC(=O)CNC(=O)[C@H](Cc2ccc3ccncc3c2)N(C)C(=O)[C@H](Cc2ccc(OCC(=O)O)cc2)NC1=O
B5: PLD-45 (peptide)
peptide: {CH2CO}-K[MeHseMe]D[NMeQ][Phe(4-COOH)][TMe]IY[NMeAla(isoquinolin-7-yl)]G[3Pal(6-Ph)][NMeC]-NH2
modifications: thioether N-12; not fully specified (residue 1); printed as MeK-MeHseMe-D-MeQ-F4COO-TMe-I-Y-MeNal27N-G-3Py6Ph-MeC-NH2
notes: SulfoCy5 conjugate
B6: PLD-30 (peptide)
peptide: {CH2CO}-[NMeK](SulfoCy5″)[NMeI]D[NMeQ][Phe(4-COOH)][TMe]I[F4aao][NMeAla(isoquinolin-7-yl)]G[3Pal(6-Ph)][NMeC]-NH2
modifications: thioether N-12
B7: Mod7 (peptide)
peptide: {CH2CO}-[NMeK](SulfoCy5(3))[MeHseMe]D[NMeQ][Phe(4-COOH)][TMe]I[F4aao][NMeAla(isoquinolin-7-yl)]G[3Pal(6-Ph)][NMeC]-NH2
modifications: thioether N-12
B8: Macrocyclic peptide of Example 2-52 (SEQ ID No. 26) (peptide)
peptide: {CH2CO}-[NMeQ][NMeQ]D[MeK][Phe(4-COOH)]II[Phe(4-CH2COOH)][NMe2Nal]G[Phe(4-(1-Me-pyrazol-4-yl))][NMeC]-NH2
modifications: thioether N-12
B9: Macrocyclic peptide of Example 2-54 (SEQ ID No. 29) (peptide)
peptide: {CH2CO}-[MeK][NMeQ][Hgn][NMeQ][Phe(4-COOH)][TMe(3)]IY[NMe2Nal]G[Phe(4-(1-Me-pyrazol-4-yl))][NMeC]-NH2
modifications: thioether N-12
B10: Mod3 (peptide)
peptide: {CH2CO}-[NMeA][MeHseMe″]D[NMeQ][Phe(4-COOH)][TMe]I[AEF][NMe2Nal]G[3Pal(6-Ph)][NMeC]-NH2
modifications: thioether N-12; not fully specified (residue 8)
B11: PLB-60 (peptide)
peptide: KIDQFIIYFGXCG
modifications: not fully specified; MeKAc-MeI-D-MeQ-F4COO-I-I-Y-MeNal27N-G-3Py6Ph-MeC-G-PEG12c-K(biotin)-NH2 by Table 13 (Table 1 prints PEG10c and K at positions 14 and 15 of SEQ ID No. 60); thioether ring from N-terminal acetyl to MeC12
notes: Biotin on the C-terminal tail outside the ring
B12: Macrocyclic peptide of Example 2-55 (SEQ ID No. 56) (peptide)
peptide: {CH2CO}-[MeKCOpipzaa″][NMeA]D[NMeY][Phe(4-COOH)][TMe]I[AEF][NMeY]G[3Pal(6-Ph)][NMeC]-NH2
modifications: thioether N-12
SMILES: CC[C@H](C)[C@@H]1NC(=O)[C@H]([C@@H](C)OC)NC(=O)[C@H](Cc2ccc(C(=O)O)cc2)NC(=O)[C@H](Cc2ccc(O)cc2)N(C)C(=O)[C@H](CC(=O)O)NC(=O)[C@H](C)N(C)C(=O)[C@H](CCCCNC(=O)N2CCN(CC(=O)O)CC2)N(C)C(=O)CSC[C@@H](C(N)=O)N(C)C(=O)[C@H](Cc2ccc(-c3ccccc3)nc2)NC(=O)CNC(=O)[C@H](Cc2ccc(O)cc2)N(C)C(=O)[C@H](Cc2ccc(OCCN)cc2)NC1=O

Each molecule was assayed against T1, Human Glypican3-Fc (ACRO Biosystems, GP3-H5258) (human, UniProt P51654 25-559) (assay: SPR (Biacore T200), Method B-3: Glypican3-Fc captured on Protein A chip, peptide as analyte). Settings: not given.
T1 construct: Bought fusion protein, captured in Methods B-2, B-3 and B-4; Catalogue number is printed only in Method B-2; not shown: Fc part of the bought fusion
Experimental: A Protein A sensor chip (Cytiva) was inserted into a Biacore T200 (Cytiva), priming was performed three times with a running buffer: HBS-P+, pH 7.4 (Cytiva), and equilibration was carried out at a flow rate of 30 μL/min. Glypican3-Fc was allowed to react for 60 seconds at a flow rate of 10 μL/min. After capturing human Glypican3-Fe, a peptide solution prepared to 10 mM in DMSO solution was diluted with a running buffer to a final concentration of 10 μM. […] Using the above samples, peptide kinetics for Glypican3 was obtained by SPR measurement. Kinetics evaluation of Glypican3 was performed by SPR measurements at a flow rate of 10 LL/min, setting the association time to 120 seconds and the disassociation time to 600 seconds.
(§1) The obtained data by Method B-1, Method B-2, Method B-3 and Method B-4 were analyzed by follow. Single Cycle Kinetics was used as the kinetics evaluation model, and curve fitting was performed using Biacore T200 Evaluation Software Version 3.0 (Cytiva).
B1 was tested, and the Kd was 1.53 nM.
With B2 the Kd was 7.9 nM.
Work on B3 yielded a Kd of 1 nM.
With B4 the Kd was 0.75 nM.
In the case of B5, the Kd is reported as 0.88 nM.
With B6 the Kd was 1.08 nM.
B7 was tested, and the Kd was 4.2 nM.
In the case of B8, the Kd is reported as 1.6 nM.
For B9, the Kd was 0.1 nM.
With B10 the Kd was 0.9 nM.
For B11, the Kd was 0.11 nM.
B12 showed a Kd of 5.3 nM.

What follows are molecules tested against Human Glypican3-Fc (Homo sapiens, UniProt P51654) (assay: SPR binding to Glypican-3, Method B-3 (Glypican3-Fc captured on Protein A chip, 5-point dilution series)). Settings: SPR method B-3.
Experimental: A Protein A sensor chip (Cytiva) was inserted into a Biacore T200 (Cytiva), priming was performed three times with a running buffer: HBS-P+, pH 7.4 (Cytiva), and equilibration was carried out at a flow rate of 30 μL/min. Glypican3-Fc was allowed to react for 60 seconds at a flow rate of 10 μL/min. After capturing human Glypican3-Fe, a peptide solution prepared to 10 mM in DMSO solution was diluted with a running buffer to a final concentration of 10 μM. After that, 5 serial dilution series (100 nM, 50 nM, 25 nM, 10 nM, 5 nM) of peptide solutions were prepared. Using the above samples, peptide kinetics for Glypican3 was obtained by SPR measurement. Kinetics evaluation of Glypican3 was performed by SPR measurements at a flow rate of 10 LL/min, setting the association time to 120 seconds and the disassociation time to 600 seconds.
as §1
`CC[C@H](C)[C@@H]1NC(=O)[C@H]([C@@H](C)OC)NC(=O)[C@H](Cc2ccc(C(=O)O)cc2)NC(=O)[C@H](CNC(=O)N2CCN(CC(=O)O)CC2)N(C)C(=O)[C@H](CC(=O)O)NC(=O)[C@H](CCCCNC(=O)N2CCN(CC(=O)O)CC2)N(C)C(=O)[C@H](CCCCN)N(C)C(=O)CSC[C@@H](C(N)=O)N(C)C(=O)[C@H](Cc2ccc(-c3ccccc3)nc2)NC(=O)CNC(=O)[C@H](Cc2ccc3ccncc3c2)N(C)C(=O)[C@H](Cc2ccc(OCC(=O)O)cc2)NC1=O` [Conjugate 2-29] showed a Kd of 1 nM.
Work on `CC[C@H](C)[C@@H]1NC(=O)[C@H]([C@@H](C)OC)NC(=O)[C@H](Cc2ccc(C(=O)O)cc2)NC(=O)[C@H](CCC(N)=O)N(C)C(=O)[C@H](CC(=O)O)NC(=O)[C@H]([C@@H](C)CC)N(C)C(=O)[C@H](CCCCN)N(C)C(=O)CSC[C@@H](C(N)=O)N(C)C(=O)[C@H](Cc2ccc(-c3ccccc3)nc2)NC(=O)CNC(=O)[C@H](Cc2ccc3ccncc3c2)N(C)C(=O)[C@H](Cc2ccc(OCC(=O)O)cc2)NC1=O` [Conjugate 2-26] ({CH2CO}-[NMeK][NMeI]D[NMeQ][Phe(4-COOH)]T(Me)IY(Carboxymethyl)[NMeAla(isoquinolin-7-yl)]G[3Pal(6-Ph)][NMeC]-NH2; thioether N-12) yielded a Kd of 0.3 nM.
